# Article PMC10060375, “Self assembling nanoparticle enzyme clusters provide access to substrate channeling in multienzymatic cascades” (Nature Communications, 2023)
# B1: Triose phosphate isomerase (TPI) (Escherichia coli K-12) (protein)
# chain: MRHPLVMGNWKLNGSRHMVHELVSNLRKELAGVAGCAVAIAPPEMYIDMAKREAEGSHIMLGAQNVDLNLSGAFTGETSAAMLKDIGAQYIIIGHSERRTYHKESDELIAKKFAVLKEQGLTPVLCIGETEAENEAGKTEEVCARQIDAVLKTQGAAAFEGAVIAYEPVWAIGTGKSATPAQAQAVHKFIRDHIAKVDANIAEQVIIQYGGSVNASNAAELFAQPDIDGALVGGASLKADAFAVIVKAAEAAKQA
# notes: full length, terminal His6 kept; E. coli BL21(DE3)
# B2: Glyceraldehyde-3-phosphate dehydrogenase (GPD) (Escherichia coli K-12) (protein)
# chain: TIKVGINGFGRIGRIVFRAAQKRSDIEIVAINDLLDADYMAYMLKYDSTHGRFDGTVEVKDGHLIVNGKKIRVTAERDPANLKWDEVGVDVVAEATGLFLTDETARKHITAGAKKVVMTGPSKDNTPMFVKGANFDKYAGQDIVSNASCTTNCLAPLAKVINDNFGIIEGLMTTVHATTATQKTVDGPSHKDWRGGRGASQNIIPSSTGAAKAVGKVLPELNGKLTGMAFRVPTPNVSVVDLTVRLEKAATYEQIKAAVKAAAEGEMKGVLGYTEDDVVSTDFNGEVCTSVFDAKAGIALNDNFVKLVSWYDNETGYSNKVLDLIAHISK
# B3: Enolase (Eno) (Escherichia coli K-12) (protein)
# chain: SKIVKIIGREIIDSRGNPTVEAEVHLEGGFVGMAAAPSGASTGSREALELRDGDKSRFLGKGVTKAVAAVNGPIAQALIGKDAKDQAGIDKIMIDLDGTENKSKFGANAILAVSLANAKAAAAAKGMPLYEHIAELNGTPGKYSMPVPMMNIINGGEHADNNVDIQEFMIQPVGAKTVKEAIRMGSEVFHHLAKVLKAKGMNTAVGDEGGYAPNLGSNAEALAVIAEAVKAAGYELGKDITLAMDCAASEFYKDGKYVLAGEGNKAFTSEEFTHFLEELTKQYPIVSIEDGLDESDWDGFAYQTKVLGDKIQLVGDDLFVTNTKILKEGIEKGIANSILIKFNQIGSLTETLAAIKMAKDAGYTAVISHRSGETEDATIADLAVGTAAGQIKTGSMSRSDRVAKYNQLIRIEEALGEKAPYNGRKEIKGQA
# notes: as for B1
# B4: Lactate dehydrogenase (LDH) (Escherichia coli K-12) (protein)
# chain: MKLAVYSTKQYDKKYLQQVNESFGFELEFFDFLLTEKTAKTANGCEAVCIFVNDDGSRPVLEELKKHGVKYIALRCAGFNNVDLDAAKELGLKVVRVPAYDPEAVAEHAIGMMMTLNRRIHRAYQRTRDANFSLEGLTGFTMYGKTAGVIGTGKIGVAMLRILKGFGMRLLAFDPYPSAAALELGVEYVDLPTLFSESDVISLHCPLTPENYHLLNEAAFEQMKNGVMIVNTSRGALIDSQAAIEALKNQKIGSLGMDVYENERDLFFEDKSNDVIQDDVFRRLSACHNVLFTGHQAFLTAEALTSISQTTLQNLSNLEKGETCPNELV
# notes: full length, terminal His6 kept; E. coli BL21(DE3); EC 1.1.1.28
# B5: Phosphoglycerate mutase (PGM) (Escherichia coli K-12) (protein)
# chain: MLVSKKPMVLVILDGYGYREEQQDNAIFSAKTPVMDALWANRPHTLIDASGLEVGLPDRQMGNSEVGHVNLGAGRIVYQDLTRLDVEIKDRAFFANPVLTGAVDKAKNAGKAVHIMGLLSAGGVHSHEDHIMAMVELAAERGAEKIYLHAFLDGRDTPPRSAESSLKKFEEKFAALGKGRVASIIGRYYAMDRDNRWDRVEKAYDLLTLAQGEFQADTAVAGLQAAYARDENDEFVKATVIRAEGQPDAAMEDGDALIFMNFRADRAREITRAFVNADFDGFARKKVVNVDFVMLTEYAADIKTAVAYPPASLVNTFGEWMAKNDKTQLRISETEKYAHVTFFFNGGVEESFKGEDRILINSPKVATYDLQPEMSSAELTEKLVAAIKSGKYDTIICNYPNGDMVGHTGVMEAAVKAVEALDHCVEEVAKAVESVGGQLLITADHGNAEQMRDPATGQAHTAHTNLPVPLIYVGDKNVKAVEGGKLSDIAPTMLSLMGMEIPQEMTGKPLFIVE
# notes: as for B1
# How the values were obtained:
# [1] = substrate: O=C(CO)COP(=O)(O)O; assay: initial rates, plate reader, Michaelis-Menten fit; format: biochemical, Escherichia coli; conditions: free enzyme, 30 °C, forward direction inferred (only PGI and PGK stated as reverse), substrate inferred from pathway
# From the text: initial rates, plate reader, Michaelis-Menten fit on Triose phosphate isomerase (TPI)
# purified protein = substrate: O=C[C@H](O)COP(=O)(O)O; assay: purified protein; conditions: free enzyme, 30 °C, cosubstrates saturating, varied substrate inferred from pathway
# [2] = substrate: O=C(O)[C@@H](CO)OP(=O)(O)O; assay: initial rates, plate reader, Michaelis-Menten fit; format: biochemical, Escherichia coli; conditions: free enzyme, 30 °C, substrate inferred from pathway
# From the text: initial rates, plate reader, Michaelis-Menten fit on Enolase (Eno)
# [3] = substrate: CC(=O)C(=O)O; assay: initial rates, plate reader, Michaelis-Menten fit; format: biochemical, Escherichia coli; conditions: free enzyme, 30 °C, cosubstrate saturating, varied substrate inferred from pathway
# From the text: initial rates, plate reader, Michaelis-Menten fit on Lactate dehydrogenase (LDH)
# [4] = substrate: O=C(O)[C@H](O)COP(=O)(O)O; assay: initial rates, plate reader, Michaelis-Menten fit; format: biochemical, Escherichia coli; conditions: free enzyme, 30 °C, forward direction
# From the text: initial rates, plate reader, Michaelis-Menten fit on Phosphoglycerate mutase (PGM)
protein,measurement,setting,value
B1,Km,[1],1.717 ± 0.236 mM
same,Vmax,[1],34.9 µM/min
same,kcat,[1],194 ± 12 s⁻¹
same,kcat/Km,[1],113000 ± 17000 M⁻¹ s⁻¹
B2,Km,purified protein,3.494 ± 1.039 mM
same,Vmax,purified protein,0.6 µM/min
same,kcat,purified protein,3.2 s⁻¹
same,kcat/Km,purified protein,920 M⁻¹ s⁻¹
B3,Km,[2],2.04 ± 0.072 mM
same,Vmax,[2],4.14 µM/min
same,kcat,[2],22.9 ± 3 s⁻¹
same,kcat/Km,[2],11200 ± 4300 M⁻¹ s⁻¹
B4,Km,[3],31.47 ± 6.901 mM
same,Vmax,[3],14.4 µM/min
same,kcat,[3],95.5 ± 10.4 s⁻¹
same,kcat/Km,[3],3040 ± 740 M⁻¹ s⁻¹
B5,Km,[4],3.584 ± 1.138 mM
